The record followed here is the domain aggregation screens of Martell et al. (2025).

Some results are limits rather than exact numbers.

This data set in a line: soluble fraction after stress (log2 fold change); higher = more stays soluble; pooled small domains, quantitative proteomics. The note with it: stress: pH 4. Put shortly: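 Following acid stress at pH 4, the amount of each small protein domain still soluble was measured in pooled custom libraries by high-throughput quantitative proteomics. Its fold change, on a log2 scale, is higher when more of the domain stayed soluble. This fold change is taken as a measure of aggregation propensity.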

For “HMRRGPLTPDDFVLDMRVVHPRYGVGRIVALSGSGESRKATVDFGGSIGRMKFVLSQSPLKP”, the “soluble fraction (log2)” value is at least 0.43.

Consider “HMRRHLLEMNDAIGRLGRLISEDPADRDVAEVIWAALRGMVMGQMIMNEPIDWQRERRTLVEMAIGR”, for which the “soluble fraction (log2)” value came to 0.119. The value for “HMRRIADVVPEQLTREEAEELLETLAEQGEIHEEQALLARYILEQSLQGVAPEVEPLIRAKLLAGILMVY” was -1.67; that for “HMRRKDIEFTNTMLEELYRHNSKWYDAVVRAYALEIPQKQIAEEMGIRLEAFQSMLFRAKKWIKTKYEADY” was -0.432.

As to “HMRRNLSGEDTIVNRMAQWQYTQEQKNELHKMMDAGMPQEDILSVFYPEIKAEEMHRFLLAFQTAHNSG”, the “soluble fraction (log2)” value was -0.0487. Consider “HMRRPRGVFNLVPRGFKRFGFITPDGGGEDMFAHLENVRAGHVVEDRNAVEYGIGRGPDGRDQAVDIVPVP”, for which the “soluble fraction (log2)” value was -0.112. The value for “HMRRPTYPTVTTEAGMVVEDRSSGFVGDIVRWSFEGVTLRDRQQQLRHFTWKPGGFLINGTPVTLKRPE” was 0.0911; that for “HMRRRVIGTLVMGDMSTDFKVLADGHTHRVLAAAISFHKAKPGDEVVILVPKSAPSKWAAVEHVMK” was at least 0.43; that for “HMRSAKLPYSEFLKLVDTDKVNDVSIVGRTISGHLDDGSKFSTYTPPNDPNIIEKLSSHNVIINSAPE” was 0.337.

Regarding “HMRSASFDIMSQKQSDATLGYERVYDTETNEVYKAYNGFTDDYDGERYKSISDNMYTKGISGYIEK”, the “soluble fraction (log2)” value is -0.151. The value for “HMRSDSEIKEDVLDELMWQPNIDETQIGVIVEKGVVTLTGFVDAYAKKTAALDAVKNVKGVKAVANDIEV” was -0.0968. For “HMRSFGRLRRRDSGRWEAAYVGPDARLYRAPATFEAKDDAIAWLSAERRMIELDTWIKPHDRASR” the value was -0.000443. The value for “HMRSGFAFSEEEIKHLDNIVSPLLIKGQSIHHISIFHKDEVMMSERTLYSYVNNGLFSARNIDMPRTVRMR” was 0.218. Turning to “HMRSISVEMDGKEYLIPTVSENGKVLSDDDAVKQFKKTGKHLDVFDSPEDATAYARQLHEDQESFYA”, the “soluble fraction (log2)” value turned out to be 0.22.

With “HMRSKTDLVYEEIKKLILRGELSSDTPISENHLARRFEISRTPIREALKRLHIEGFVRIIPNHGVFVR”, the “soluble fraction (log2)” value is -0.304. The value for “HMRSLAVGNVVSEEGKPSYLLLDSKRTMLFSENSIPSLYLEDGRRVIVNYTLLDEDYQGYDFRIHVNDIDT” was 0.22. The value for “HMRSNADALIGRTARVSQTIVENGFGRVALDGDDWKAQAADGSRIEEGQNVIVKDRDSIILTVEKE” was 0.256; that for “HMRSNIYTEEKLWTVLQDFFQENRYLTISLMRMKFGLSRHMAQKWIDHFIAKGLLVKDGTPRSPIYFLND” was -0.538; that for “HMRSNQKVSQIAISQVLPGMVTAKNVYSRNDQLILNRETTLDSTKIAKIMFYAIESIYVYEPE” was -0.6.

Turning to “HMRSPVDALSNRELQVLQMVGRGLSSRQVAEALHLSVKTVEAHRQRIKGKLGLRTGAQLVQFAANWVTG”, the “soluble fraction (log2)” value was -0.182. For “HMRSREGVRWIIRERIMEELQERHHMDDGELLEMIDRSIGEMGQEIFLPLKERIWLRGSLFDSFR” the value was -1.44.

For “HMRSWRDQRVDDLLAAVSELGMTMSRAAAGDLLDQRVEYVANQMRVTPATARKYLTEETLAGMAREIVFG”, the “soluble fraction (log2)” value was -0.83.

With “HMRTAFPQLTERELEILDLIAAGRNNAQIASALYLAPKTVRNNVSNILAKLQATDRAEAIIRARDAGLGG”, the “soluble fraction (log2)” value stood at 0.273. For “HMRTAKEVFYKELKGYMQNGDELSVKKIYSLFPEINPKTVSWRLHELVQHGKIHRTGHGYYALTQ” the value was 0.0797. For “HMRTDTIINSGGLKINPEEVENEILKSLGDNNFFIDKIKNDKFGEEIILIALKKIKINLLIESLNLI” the value was -0.286; for “HMRTFFEIEQLKAYVGEEIQVKFEADSHKQTVLGKLISISEDFIEIENSKKGNLKISLDNYLTSKLIY”, -0.468; for “HMRTGSSVLVGLVAPVRLGATGAPKVFADGALWEARSAVPLNDGQLVEITGTDGLTVLVKPSA”, 0.138. For “HMRTIVSELNDIKGISDASAKKLLIRYGSFEAVREAVMKHEEEFELDMGKRITGALTRYFYEE” the value was 0.223; for “HMRTKLEEAVEWLQEQLNDGPVLSKELESEAKAADILPGTLRRAGEALGVVKQKQGGRGGWTWSLPR”, at least 0.43; for “HMRTLGADLRALRKARGLTLAGMADNMGKSVGWMSQIERDISEPSISDLRALAKLLDVSVSSLFR”, -0.557. “HMRTQEELVAEVREQMEAMGTIATLYVELYESSEERLVGGVIFEDERHYRFVYEDGLLHYEEEK”: the “soluble fraction (log2)” value is -1. For “HMRTRSDVKRAAIIQAAKDAFQEYGVNATSMDKLAEMASVSKRTVYNHFSAKEELVMHIVKE” the value was 0.174. For “HMRTVPEALLGRAYETAETAIVLEGLEAKRTDVFHPTIGNGTVIRLEPASGSQVSAGGVIEIFVSKGTETI” the value was -1.31; for “HMRVDYKTQLQELLQRQGAAAPQYRLLVEEGPAHLRRFQVGVYFQGRLLGTGWGRNKKEAEQEAARQALMP”, 0.186; for “HMRVEEVGYGEFLQMAEERDLAEVQVTDTEIIFSDKDTPPNYYKTGRMDDPFLVDRLYSAGIRDFGE”, -1.65.
